This note sets out measurements from US20150086562A1 (BIOATLA, published 2015).

Residue numbers refer to the chain shown, from its start.

The labels stand for the following.
B1: VM1008 (antibody, V domains shown)
VH: QVQLVQSGAEVKKPGASVKVSCKASGYVFTSYWLHWVRQARGQRLEWIGYINPRNDYTEYNRIFKGRVTITADKSTSTAYMELSSLRSEDTAVYYCARRGITTFYWGQG
VL: DIQMTQSPSSLSASVGDRVTITCKSSQSVLYSAVEKNYLAWYQQKPGQAPRLLIYWASTRERGIPDRFSGSGSGTDFTLTISRLEPEDFAVYYCKQYLSSWTFGQG
notes: Humanized antibody with human constant region; also called Anti-CD22 Ab VM1008; anti-CD22 Mab clone VM1008
B2: VM1013 (antibody, V domains shown)
VH: QVQLQESGPGLVKPSQTLSLTCTVSGYVFTSYWLHWIRQPPGKGLEWIGYINPRNDYTEYNRIFKGRFTISRDNAKNSLYLQMNSLRAEDTAVYYCARRGITTFYWGQG
VL: B1 VL with D1A, M4L, I64V, D66S, R83S, E85Q, V91T
notes: Humanized antibody with human constant region; also called anti-CD22 Mab clone VM1013
B3: VM1009 (antibody, V domains shown)
VH: QVQLVQSGAEVKKPGASVKVSCKASGYVFTSYWLHWIRQSPSRGLEWLGYINPRNDYTEYNRIFKGRFVFSLDTSVSTAYLQICSLKAEDTAVYYCARRGITTFYWGQG
VL: EIVLTQSPATLSLSPGERATLSCKSSQSVLYSAVEKNYLAWYQQKPGKAPKLLIYWASTRERGVPSRFSGSGSGTDFTFTISSLEAEDAATYYCKQYLSSWTFGQG
notes: Humanized antibody with human constant region; also called anti-CD22 Mab clone VM1009
B4: VM1010 (antibody, V domains shown)
VH: EVQLVQSGAEVKKPGESLRISCKVSGYVFTSYWLHWIRQSPSRGLEWLGYINPRNDYTEYNRIFKGRFTISRDNAKNSLYLQMNSLRAEDTAVYYCARRGITTFYWGQG
VL: B3 VL with E85Q, A86P, A89I
notes: Humanized antibody with human constant region; also called anti-CD22 Mab clone VM1010
B5: VM1005 (antibody, V domains shown)
VH: B3 VH with Q1E, S17T, V20I, A24V
VL: B1 VL with D1A, M4L, I64V, D66S, R83S, E85Q, V91T
notes: Humanized antibody with human constant region; also called anti-CD22 Mab clone VM1005
B6: VM1012 (antibody, V domains shown)
VH: QVQLVQSGAEVKKPGASVKVSCKASGYVFTSYWLHWVRQAPGQGLEWMGYINPRNDYTEYNRIFKGRFTISRDNAKNSLYLQMNSLRAEDTAVYYCARRGITTFYWGQG
VL: B3 VL with L13V, K48Q, K51R, E85Q, A86P, A89I
notes: Humanized antibody with human constant region; also called anti-CD22 Mab clone VM1012

The first experiment concerns the target T1, CD22 protein expressed on the surface of Daudi cells (human, UniProt P20273 20-847).
T1 construct: whole, on cells; also called human CD22; cell surface CD22
T1 sequence (looked up): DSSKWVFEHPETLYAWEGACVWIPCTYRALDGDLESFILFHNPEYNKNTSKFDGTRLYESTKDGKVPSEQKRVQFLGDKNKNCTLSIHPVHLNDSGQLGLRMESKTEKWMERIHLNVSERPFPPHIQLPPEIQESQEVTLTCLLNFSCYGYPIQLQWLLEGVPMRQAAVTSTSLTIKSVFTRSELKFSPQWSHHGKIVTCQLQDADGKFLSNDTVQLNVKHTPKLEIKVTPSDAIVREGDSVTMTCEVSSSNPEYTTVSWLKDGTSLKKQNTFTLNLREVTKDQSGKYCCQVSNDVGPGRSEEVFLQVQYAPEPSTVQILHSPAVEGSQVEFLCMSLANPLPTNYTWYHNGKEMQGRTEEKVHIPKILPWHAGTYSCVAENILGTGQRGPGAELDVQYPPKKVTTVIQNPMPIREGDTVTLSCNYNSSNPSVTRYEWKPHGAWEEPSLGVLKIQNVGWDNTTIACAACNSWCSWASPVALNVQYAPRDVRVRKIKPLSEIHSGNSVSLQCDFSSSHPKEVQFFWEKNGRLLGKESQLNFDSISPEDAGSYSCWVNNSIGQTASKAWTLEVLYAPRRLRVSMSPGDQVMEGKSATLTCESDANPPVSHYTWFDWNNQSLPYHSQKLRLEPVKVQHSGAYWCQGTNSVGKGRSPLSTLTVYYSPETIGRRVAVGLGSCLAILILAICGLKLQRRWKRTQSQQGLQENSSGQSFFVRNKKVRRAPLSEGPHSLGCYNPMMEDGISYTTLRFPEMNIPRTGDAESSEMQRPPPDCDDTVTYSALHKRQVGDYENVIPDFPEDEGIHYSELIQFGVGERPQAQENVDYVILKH
In words: confocal immunofluorescence, FITC-labelled antibody on Daudi cells. As to the method:
Selected antiCD22 selected anti-CD22 Mab clones VM1000, VM1001, VM1002, VM1003, VM1004, VM1005, VM1006, VM1007, VM1008, VM1009, VM1010, VM1011, VM1012, VM1013, VM1014, and VM1015 of the invention were directly conjugated to F1TC using the Zenon labeling complex (Molecular Probes) using the manufacturer's recommended procedures. Approximately 1×10e7 Daudi cells were resuspended in PBS containing 5 ug/ml labeled anti-CD22 antibody and incubated for 45 minutes on ice. Cells then washed twice in PBS-FBS solution at 0 C. Cells were then incubated in RPMI 1640 media containing 10% FBS for varying periods at 37 C, harvested and washed in PBS at 0 C. The cells were then briefly fixed in 4% paraformaldehyde solution for 5 min at room temperature, then washed in PBS containing 0.05% Triton X-100. Cell pellets were collected by centrifugation and resupended in a minimal volume of FBS neat, and then applied to glass microscope slides. Prior to analysis, slides were treated with mounting fluid containing the nuclear stain DAPI, then coverslips were applied. Confocal images were recorded using an ACAS Ultima confocal microscope (Meridian Instruments, Inc., Okemos, Mich.) and represent 1-μm sections through the center of a focal plane using a 100× oil immersion objective.
The Anti-CD22 monoclonal antibodies selected clones VM1000, VM1001, VM1002, VM1003, VM1004, VM1005, VM1006, VM1007, VM1008, VM1009, VM1010, VM1011, VM1012, VM1013, VM1014, and VM1015 of the invention were analysed for their ability to be rapidly internalized into the intracellular compartment as judged by immunoflourescent signal on the cell surface versus the intracellular endo cytotic compartment. The antibodies of the invention were compared to BA006H, and humanized version of the murine monoclonal antibody LL2. In this example, FIG. 21A, the anti-CD22 antibodies of the invention bind to CD22 protein expressed on the surface of Daudi cells by approximately 20-fold compared to BA006H as judged by relative mean fluorescence (RMF), and are virtually completely internalized within the cell with 90 minutes, localizing predominantly to within the perinuclear golgi apparatus and associated lysozomes. Shown in FIG. 21B is a chart of the RMF surface binding values obtained in this manner for individual anti-CD22 antibodies of the invention.
For B1, the “fold surface binding by relative mean fluorescence (RMF) compared to BA006H” value was about 20 fold.
Same read-out and setting: then B2, with about 20 fold.
Same read-out and setting: then B3, with about 20 fold.
The same measure, in the same setting: the figure for B4 is about 20 fold; for B5 it is about 20 fold.
As to B6, the “fold surface binding by relative mean fluorescence (RMF) compared to BA006H” value was about 20 fold.

The target of a further experiment is T1, CD22 protein expressed on the surface …. In words: cell-based or functional assay.
As to B1, the “Daudi Internalization by FACS, % Shift” value amounted to 69.4%.
For the molecule B2, the “Daudi Internalization by FACS, % Shift” value is 88.8%.
On the same count and under the same terms, the figure for B3 is 69.4%; for B4 it is 65.7%.
For B5, the “Daudi Internalization by FACS, % Shift” value was determined as 86.4%.
As for B6, the “Daudi Internalization by FACS, % Shift” value turned out to be 87.5%.

For another experiment, the target named is T2, recombinant CD22 extracellular domain.
T2 construct: Kept apart from m18, which is cell-surface CD22; also called CD22 (analyte in the BIAcore runs); CD22 ECD
Kind of experiment: ELISA on plates coated with recombinant CD22 extracellular domain (coating 2, 0.2, 0.02 or 0.002 ug/ml per paragraph 227; the sheet does not say which), anti-human IgG-HRP, read at 450 nm. As to the method:
Nunc-Immuno MaxiSorp 96 well plates were coated with 100 μl of 2 μg/ml, 0.2 μg/ml, 0.02 μg/ml or 0.002 μg/ml recombinant CD22 extracellular domain (PeproTech, Inc. catalog number 100-01 in coating solution (sodium bicarbonate in PBS). The plates were covered with plate sealer and incubated at 4° C. overnight. Plates were emptied and the residual liquid tapped out on paper towels. 200 μl washing solution (0.05% Tween-20 in PBS) was added and shaken at 200 RPM for 5 min at room temperature. The plates were emptied and residual liquid tapped out on paper towels. 200 μl blocking solution (2% Carnation milk in PBS) was added and shaken at 200 RPM for one hour at room temperature. Plates were emptied and residual liquid tapped out on paper towels. 100 μl of diluted samples containing VM1000, VM1001, VM1002, VM1003, VM1004, VM1005, VM1006, VM1007, VM1008, VM1009, VM1010, VM1011, VM1012, VM1013, VM1014, and VM1015 antibodies for ELISA were used. The samples were shaken at 200 RPM for one hour at room temperature; plates emptied and residual liquid tapped out on paper towels. 200 μl washing solution (0.05% Tween-20 in PBS) was added, shaken at 200 RPM for 5 min at room temperature; plates emptied and residual liquid tapped out on paper towels. This process was repeated three times. 100 μl of 1:2500 dilution of anti-human IgG conjugated with HRP diluted in block solution (2% Carnation milk in PBS) was added for all samples. 100 μl of 1:2500 dilution of anti-rabbit IgG conjugated with HRP diluted in block solution (2% Carnation milk in PBS) was added for control antibody. The contents were shaken at 200 RPM for one hour at room temperature, plates emptied and residue liquid tapped out on paper towels. 200 μl washing solution (0.05% Tween-20 in PBS) was added, shaken at 200 RPM for 5 min at room temperature; plates emptied and residual liquid tapped out on paper towels. This process was repeated three times. 100 μl TMB substrate solution was added, and incubated at room temperature. The reaction was stopped with 1 N HCl, and the plate read at 450 nm to determine relative binding affinity (FIG. 17).
In general terms: ELISA stands for enzyme-linked immunosorbent assay.
With B1, the “ELISA OD 450” value came to 0.67.
Turning to B3, the “ELISA OD 450” value turned out to be 0.597.
On the same count and under the same terms, then B4, with 0.7; and B5, with 0.372.
